Test [1] addresses HLA-A*02:01. Kind of test: IEDB peptide-MHC binding, purified MHC/direct/fluorescence; filed as Kd, often an IC50 or EC50 that approximates it; ≥ and ≤ were set here for values at or beyond the usual limits of such assays.
The target in a further test is HLA-A*31:01. The description is as above.
The target of the next test is HLA-A*69:01. The test is described as above.
In a further test the target is HLA-C*14:02. The description is as above.
Test [2] has as its target HLA-B*07:02. The test is described as follows: IEDB peptide-MHC binding, purified MHC/competitive/fluorescence; filed as Kd, often an IC50 or EC50 that approximates it; ≥ and ≤ were set here for values at or beyond the usual limits of such assays.
Test [3] concerns the target HLA-A*02:01. The test is described as follows: IEDB peptide-MHC binding, purified MHC/competitive/radioactivity; ≥ and ≤ were set here for values at or beyond the usual limits of such assays.
Another test addresses HLA-C*06:02. Kind of test: IEDB peptide-MHC binding, purified MHC/direct/fluorescence; filed as Kd, often an IC50 or EC50 that approximates it; ≥ and ≤ were set here for values at or beyond the usual limits of such assays.
Another test concerns the target HLA-C*12:03. The test is described as above.
In the next test the target is HLA-C*15:02. Described as above.
Test [4] has as its target HLA-B*27:05. Kind of test: IEDB peptide-MHC binding, purified MHC/competitive/fluorescence; filed as Kd, often an IC50 or EC50 that approximates it; ≥ and ≤ were set here for values at or beyond the usual limits of such assays.
For test [5], the target named is HLA-B*40:01. The description is as above.
The next test concerns the target HLA-A*68:02. Kind of test: IEDB peptide-MHC binding, purified MHC/direct/fluorescence; filed as Kd, often an IC50 or EC50 that approximates it; ≥ and ≤ were set here for values at or beyond the usual limits of such assays. The settings on record: source organism: Lake Victoria marburgvirus - Popp.
Another test deals with HLA-A*03:01. The description is as above. The settings on record: source organism: Lake Victoria marburgvirus - Popp.
The target of test [6] is HLA-B*07:02. The test is described as above. As to conditions: source organism: Lake Victoria marburgvirus - Popp.
A further test addresses HLA-B*58:01. The description is as above. As to conditions: source organism: Lake Victoria marburgvirus - Popp.
Test [7] has as its target HLA-B*27:05. Described as above. As to conditions: source organism: Lake Victoria marburgvirus - Popp.
The target of another test is HLA-B*15:17. The description is as above. As to conditions: source organism: Lake Victoria marburgvirus - Popp.
For the next test, the target named is HLA-B*08:01. The description is as above. As to conditions: source organism: Orthomarburgvirus marburgense.
The target in test [8] is HLA-B*15:01. Described as above. The settings on record: source organism: Lake Victoria marburgvirus - Popp.
The target in the next test is HLA-B*48:01. The test is described as above. As to conditions: source organism: Lake Victoria marburgvirus - Popp.
The target in the next test is HLA-B*57:01. The test is described as above. As to conditions: source organism: Lake Victoria marburgvirus - Popp.
Test [9] concerns the target HLA-B*40:01. Described as above. As to conditions: source organism: Lake Victoria marburgvirus - Popp.
Test [10] has as its target HLA-B*46:01. The description is as above. The settings on record: source organism: Lake Victoria marburgvirus - Popp.
A further test has as its target HLA-A*11:01. Described as above. As to conditions: source organism: Lake Victoria marburgvirus - Popp.
A further test addresses HLA-A*01:01. The description is as above. As to conditions: source organism: Lake Victoria marburgvirus - Popp.
The target in a further test is HLA-A*26:01. The description is as above. The settings on record: source organism: Orthomarburgvirus marburgense.
Another test addresses HLA-B*08:03. The description is as above. As to conditions: source organism: Orthomarburgvirus marburgense.
A further test has as its target HLA-A*26:02. Kind of test: IEDB peptide-MHC binding, purified MHC/competitive/fluorescence; filed as Kd, often an IC50 or EC50 that approximates it; ≥ and ≤ were set here for values at or beyond the usual limits of such assays. The settings on record: source organism: Orthomarburgvirus marburgense.
A further test deals with HLA-A*02:06. The description is as above. The settings on record: source organism: Orthomarburgvirus marburgense.
Another test addresses HLA-C*03:03. Kind of test: IEDB peptide-MHC binding, purified MHC/direct/fluorescence; filed as Kd, often an IC50 or EC50 that approximates it; ≥ and ≤ were set here for values at or beyond the usual limits of such assays.
For another test, the target named is HLA-C*05:01. Described as above.
In another test the target is HLA-A*02:03. The test is described as above. The settings on record: source organism: Variola virus.
A further test concerns the target HLA-B*35:01. The test is described as follows: IEDB peptide-MHC binding, purified MHC/competitive/fluorescence; filed as Kd, often an IC50 or EC50 that approximates it; ≥ and ≤ were set here for values at or beyond the usual limits of such assays. The settings on record: source organism: Camelpox virus M-96.
In test [11] the target is HLA-B*15:01. The description is as above. The settings on record: source organism: Escherichia coli O139:H28 str. E24377A.
A further test concerns the target HLA-B*39:01. Described as above.
The target of a further test is HLA-A*24:03. The test is described as follows: IEDB peptide-MHC binding, purified MHC/direct/fluorescence; filed as Kd, often an IC50 or EC50 that approximates it; ≥ and ≤ were set here for values at or beyond the usual limits of such assays. The settings on record: source organism: Vibrio cholerae.
Another test concerns the target HLA-C*07:02. The description is as above. The settings on record: source organism: Vibrio cholerae AM-19226.
A further test concerns the target HLA-A*23:01. Described as above. As to conditions: source organism: Vibrio cholerae.
In test [12] the target is HLA-B*46:01. Kind of test: IEDB peptide-MHC binding, purified MHC/competitive/fluorescence; filed as Kd, often an IC50 or EC50 that approximates it; ≥ and ≤ were set here for values at or beyond the usual limits of such assays. As to conditions: source organism: Vibrio cholerae AM-19226.
The target of another test is HLA-B*15:42. The description is as above. As to conditions: source organism: Mycobacterium tuberculosis C.
A further test addresses HLA-B*45:06. The test is described as above. As to conditions: source organism: Mycobacterium tuberculosis C.
Another test deals with HLA-B*83:01. The description is as above. As to conditions: source organism: Mycobacterium tuberculosis C.
[13] abbreviates: source organism: Pseudomonas aeruginosa.
Setting [14] is: source organism: Rickettsia massiliae MTU5.
Setting [15] is: source organism: Mycobacterium tuberculosis H37Ra.
[16] abbreviates: source organism: Lake Victoria marburgvirus - Popp.
Where [17] appears, read: source organism: Camelpox virus CMS.
The mark [18] stands for this setting: source organism: Camelpox virus M-96.
Where [19] appears, read: source organism: Escherichia coli O139:H28 str. E24377A.
The mark [20] stands for this setting: source organism: Vibrio cholerae AM-19226.

Some results are limits rather than exact numbers.

On to AYFATPASV, for which the Kd (in general, the concentration at which binding is half-saturated) with HLA-A*02:01 [1] (setting [13]) is 2270 nM; with HLA-A*31:01 (setting [13]), 207 nM; with HLA-A*69:01 (setting [13]) it was 4370 nM; with HLA-C*14:02 (source organism: Pseudomonas aeruginosa 2192), not above 1 nM.
Turning to EIRTFSFQL, the Kd in the test with HLA-B*07:02 [2] (source organism: Influenza A virus (A/duck/England/1/1956(H11N6))) was not below 20000 nM.
Consider FLPVDFFPSI, for which the IC50 – broadly, the point on the concentration scale where inhibition reaches its midpoint – with HLA-A*02:01 [3] (source organism: Hepatitis B virus) was found to be 35 nM.
On to FMRFAFLSM, for which the values for the Kd with HLA-C*06:02 (setting [14]), in the test with HLA-C*12:03 (setting [14]) and in the test with HLA-C*15:02 (setting [14]) were not below 20000 nM, 894 nM and not below 20000 nM, respectively.
FRWTQSLRR registered a Kd in the test with HLA-B*27:05 [4] (source organism: Mammarenavirus machupoense) of 39.8 nM.
GEDAKLIAV returned a Kd with HLA-B*40:01 [5] (source organism: Escherichia coli 536) of 3.8 nM.
For the sequence GLIDIAPHQISS, the IC50 in the test with HLA-A*02:01 [3] (setting [15]) came out at 173 nM.
Take HMTEVVRRC: the IC50 in the test with HLA-A*02:01 [3] (source organism: Homo sapiens) amounted to 10200 nM.
For ILDAHSLYL, the half-inhibitory concentration (IC50) in the test with HLA-A*02:01 [3] (source organism: Rift Valley fever virus) worked out at 1.3 nM.
KINIFMAFL: the Kd with HLA-C*14:02 (source organism: Taterapox virus) was not below 20000 nM.
For KNYPASLHK, the Kd was not below 20 µM in the test with HLA-A*68:02; 102 nM in the test with HLA-A*03:01; not below 20 µM with HLA-B*07:02 [6]; not below 20 µM in the test with HLA-B*58:01; not below 20 µM with HLA-B*27:05 [7]; not below 20000 nM with HLA-A*02:01 [1] (setting [16]). Also, the Kd with HLA-B*15:17 is not below 20 µM; with HLA-B*08:01 it was not below 20 µM; with HLA-B*15:01 [8], not below 20 µM; with HLA-A*31:01 (setting [16]) it was not below 20000 nM; with HLA-B*48:01 it was not below 20 µM; with HLA-B*57:01, not below 20 µM. Further, the Kd is not below 20 µM with HLA-B*40:01 [9]; not below 20 µM in the test with HLA-B*46:01 [10]; 91.7 nM with HLA-A*11:01; not below 20 µM in the test with HLA-A*01:01; not below 20 µM in the test with HLA-A*26:01; not below 20 µM with HLA-B*08:03. Moreover, the values for the Kd with HLA-A*26:02 and with HLA-A*02:06 were not below 20 µM and 627 nM, respectively.
Take LMDENTYAM: the Kd is not above 1 nM with HLA-A*02:01 [1] (setting [17]); not below 20000 nM in the test with HLA-C*12:03 (setting [18]); 592 nM in the test with HLA-C*03:03 (setting [18]); 57.8 nM with HLA-A*69:01 (setting [17]); 7 nM in the test with HLA-C*05:01 (setting [18]); 20 nM in the test with HLA-A*02:03. For the same sequence, in the test with HLA-B*35:01, the Kd is 0.2 nM.
In the case of RQGWARAML, the Kd with HLA-B*27:05 [4] (setting [19]) was 191 nM; with HLA-B*15:01 [11], 143 nM; with HLA-B*39:01 (setting [19]) it was not below 20000 nM; in the test with HLA-B*40:01 [5] (setting [19]), 313 nM.
SPYNSRFESV showed a Kd in the test with HLA-B*07:02 [2] (source organism: Influenza A virus) of 3.4 nM.
In the case of VLMAVVLASL, in the test with HLA-A*02:01 [3] (source organism: Homo sapiens), the IC50 turned out to be 45.7 nM.
For the sequence YALPSAGAF, the Kd with HLA-A*24:03 is 290 nM; with HLA-C*03:03 (setting [20]), not above 1 nM; with HLA-C*07:02, 404 nM; with HLA-C*15:02 (setting [20]), 386 nM; in the test with HLA-A*23:01 it was 445 nM; in the test with HLA-C*14:02 (setting [20]) it was 46 nM. In addition, the Kd in the test with HLA-B*46:01 [12] worked out at 34.5 nM.
For YPRNGWPAL, the Kd was not below 20000 nM with HLA-C*05:01 (source organism: Mycobacterium tuberculosis C), not below 5 µM with HLA-B*15:42, not below 5 µM with HLA-B*45:06 and 34.9 nM in the test with HLA-B*83:01.
Turning to YQERFVLAL, the Kd in the test with HLA-B*27:05 [4] (setting [15]) was 946 nM; in the test with HLA-B*39:01 (setting [15]) it was 1.7 nM.
Take YRYSLSSDL: in the test with HLA-C*06:02 (source organism: Vaccinia virus WR), the Kd stood at 4 nM.

The values above are taken from the Immune Epitope Database (IEDB).
